The source of these data is article PMC7962585 (Cell, 2021).

Sequences and labels used below:
B1: S2L28 IgG1 (antibody, V domains shown)
VH: EVQLVESGGGLVNPGGSLRLSCAASGFTFSDYTIHWVRQAPGKGLEWVSSISSSSNYIYYADSVKGRFTISRDNAKNSLSLQMNSLRAEDTAVYYCARDGNAYKWLLAENVRFDYWGQGTLVTVSS
VL: VTQPASVSGSPGQSITISCTGTSSDVGGYNYVSWYQQHPGKAPKLMIYDVSDRPSGVSNRFSGSKSGNTASLTISGLQAEDEADYYCSSYTSSSTPNWVFGGGTKLT
B2: S2X333 IgG1 (antibody, V domains shown)
VH: VQLVESGGGVVQPGRSLRLSCAASGFTFSNYGMHWVRQAPGKGLEWVAVIWYDGSNKFYADSVKGRFTISRDNSKNSLYLQMNSLRAEDTAVYFCARAFPDSSSWSGFTIDYWGQGTLVTV
VL: YELTQPPSVSTARITCGGNNIERKSVHWCQQKPGQAPALVVYDDSDRPSGIPERFSGSNSGNTATLTISRVEAGDEADYYCQVWDSGSDQVIFGGGTKLT
B3: S2M28 IgG1 (antibody, V domains shown)
VH: EVQLVESGGGVVQPGRSLRLSCAASGFTFSSYGMHWVRQAPGKGLEWVTVIWYDGSNRYYADSVKGRFTISRDNSKNTLYLQMDSLRAEDTAVYYCARAVAGEWYFDYWGQGTLVTVSS
VL: SYELTQPPSVSVSPGQTARITCSGDALAKHYAYWYRQKPGQAPVLVIYKDSERPSGIPERFSGSSSGTTVTLTISGVQAEDEADYYCQSADSIGSSWVFGGGTKLTVL

The target of the experiment is full-length wild-type SARS-CoV-2 S (Severe acute respiratory syndrome …, UniProt P0DTC2). The experiment in a line: flow cytometry on cells. (In general: Flow cytometry measures light scatter and fluorescence of single cells or particles in a stream.)
Consider B1, for which the binding result was “binds”. The same measure for B2: “binds”; for B3: “binds”.
